Measured values as given in the nanobody polyreactivity screen of Harvey et al. (2022).

Test: yeast display, Sf9 membrane polyspecificity reagent, FACS + sequencing; frameworks hold sequencing errors
Summary of the method: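 Genes from sorted yeast were amplified by colony PCR, read by MiSeq 2 × 250 sequencing and filtered on CDR length. These cells carried a synthetic nanobody library in Saccharomyces cerevisiae BJ5465 and were sorted by FACS into low and high (top ~1%) gates on anti-HA and streptavidin fluorescence. Polyreactivity is labelled according to the gate of origin.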

Sequence	polyreactivity (PSR sort gate)
QVQLVESGGGLVQAGGSLRLSCAASGSTFAYYVMGWYRQAPGTERELVAAITSSGGRTYYADSVKGRFTISRDNAKNTVYLQMNSLKPEDTAVYYCAKVSQRGVDNSDYDYWGQGTQVTVSS	high polyreactivity
QVQLVESGGGLVQAGGSLRLSCAASGSTFNYYAMGWDRQAPGTVRELVAAITRNGGRKYYADSVKGRFRLSRDNAKNTVYLQMNSLKPEETAVYYCATDTYSYRSIHDMGYWGQGTQVTVSS	high polyreactivity
QVQLVESGGGLVQAGGSLRLSCAASGSIIRYNAMGWYRQAPGKERELVAAITKGAGSTYYADSVKGRFTISRDNAKNTVYLQMNSLKPEDTAVYYWNKARGSGHTYYSWGLGTQVTVSS	high polyreactivity
QDQLVESGGGLVQAGGSLRLSCAASGSTFNAYAMGWYRQAPGKERQLVASITKSGGRTYYADSVKRRFTISRDNAKNTVYLQMNRLKPEDSAVYYCAARYVWRSTHHRGSTYDYWGQGTQVTVSS	high polyreactivity
QVQLVESGGGLVQAGGSLRLSCAASGSTIYFYAMGWYRQAPGKERELVAAITRSGSTYYADSVKGRFTISRDNAKNTVYLQLNSLKPEDTAVYYCNADQYYGCRYVYLRHYNYWGQGTQVTVSS	high polyreactivity
QGLLVESGGGLVQAGGSLRLTCAASGFIFSGYAMGWYRPAPGKERELVAAISWSGSSTYYADSVKGRFTISRDNAKNTVYLQMNSLKPEDTAVYYCAAWYTSTRPYDYWGQGTQVTVSS	high polyreactivity
QVQLVESGGGLVQAGGSLRLSCAASGLTFYQYAMGWYRQAPGKERELVAAISKSAGSTYYADSVKGSFTISRDNAKNTVYLQMNSLKPEDTAVYFCAARVLRLRYDYWGQGTQVTVSS	high polyreactivity
QVQLVESGGGLVQAGGSLRLSCAASGFIFGLYAMGWYRQAPGKERELVAAITWRGSTYYADSVKGRFTISRDNAKNTVYLQMNSLKPEDTAVYYCNDVRSAYILSNDYWGQGTQVTVSS	high polyreactivity
QVQLVESGGGLVHAGGSLRLSCAASGSIFGVNARGWYRPAPGKERELVAAISSTGSRTYYADSVQGRFTISRDNAKNTVYLQRNSLKPEETAVYYCAAYLTRYGAYYWGQGTQVTVSS	high polyreactivity
QVQLVESGGGLVQAGGSLRLSCAASGSTFIVYAMGWYRQAPGKERELVAAIRGRGGSTYYADSVKGRFTISRDNAKNTVYLQMNSLKPEDTAVYYCAARGISPQEMYYWGQGTQVTVSS	high polyreactivity
QVQLEESGGGLVQAGGSLRLSCAASGLTLGRYAMGWYRPAPGKERELVAVITGGGSTNYADSVKGRFTISRDNAKNTVYLQMNSLKPEDTAVYYCAVRGGIFQTLSTWYRYYYWGQGTQVTVSS	high polyreactivity
KVQLVESGGGLVQAGGSLRLSCAASGTSSRYVMGLYRQSTGKERELVAAISWSGDSTYYADSVKGRFTISRDNAKNTVNLQMNSLKPEDTAVYYRAKDADFGLGATSYLEYDYWGQGTQVTVSS	low polyreactivity
QVQLVESGGGLVQAGRSLRLSCAASGSILGYYAMGWYRQAPGKERELVAITSGDSTYYADSVNGRFTISRDNAKNTVYLQMNSLKPEDTAVYYCAAEGQNEGYDYWGQGTKVTVSS	high polyreactivity
QVQLVESGGGLVQAGGSLRLSCAASGGTFYRNDMGWYRQAPGKERELVAVITYRGGSTDYADSVKGRFTISRDNAKNTVYFQMNSLKPEDTAVYYCAVDYTFSYPYEDDYWGQGTQVTVSS	low polyreactivity
QVQLVESGGGLVQAGGSLRLSCAASGFIFQYFAMGWYRQAPGKERELVAGITSGVRPYYADSLKGRFTISRDNAKNTVYLQMNSLKPEDTAVYYCARLDSAAEPRQYDYWGQGTQVTVSS	high polyreactivity
QVQLVESGGGLVQAGGSLRLSCAASGNIFRGYTMGWYRQAPGKERELVAVISFGDGGTYYADSVKGRFTISRDNAKNTVYLQMNSLKPEDTAVYYCATDYQSTSVWGGHFVINPYDYWGQGTQVTVSS	low polyreactivity
QVQLVESGVGLVQAVGSLRLSCAASGIIFPYYPMGWYRQAPGKERELVAAISTGGSTYYADSVKGRFTISRDNAKNTVYLQMNSLKPEDTAVYFCAARVARYRSTKRYDYWGQGTQVSVSS	high polyreactivity
QDQHVESGGGLVQAGGSLRLSCAASGTIFSYYAMGWYRQAPGKERELVASISWKGTSTYYADSVKGRFTISRDNSKNTVYLQMNSLKPEDTAVYYCNVRFNYRGTYDYWGQGTQVTVSS	low polyreactivity
QVQHVESGGGLVQAGGSLRLSCAASGRTFYRNAMGWSRQAPGKELELVAAITRSGGSTYYADSVKGRFTTSRDNAKNTVYLQMNSLQPEDTAVYYCARRLYPYRPTPYDYWGQGTQVTVSS	low polyreactivity
QVHLVESGGGLVQAGGSLRLSCAASGFIFSYYAMGWYRQAPGKERELVAAISWTGGSTYYADSVKGRFTISRDNAKNTVYLQMNSLKPEDTAVYYCNKYYRAWLLWDYGYWGQGTQVTVSS	high polyreactivity
QVQLVESGGGLVQAGGSLRLSCAASGRIFDLNAMGWYRQAPGKERELVAAISYSGGRTFYADSVKGRFTISRDNAKNTVYLQMNSLKPEDTAVYYCNARYGKPAYQYRMDYWGQGTQVTVSS	low polyreactivity
QVQLVESGGGLVQAGGSLRLSCAASGSILVSYAMGWYRQAPGKERELVAAITSGGRTKYADSVKGRFTISRDNAKNTVYLQMNSLKPEDTAVYYCAADDPLSYQFDYWGQGTQVTVSS	high polyreactivity

Sequence	polyreactivity (PSR sort gate)
QVQLVESGGGLLQAGGSLRLICAASGFIVRRYAMGWYRQAPGKARELVAAITSGGSTYYADSVKGRFTISRDNAQYTVYLQFNSMKPVDTADYYCNAYFTGKWYDYWGQGTQVTVSS	high polyreactivity
QVQLVESGGGLDQAGGSLRLSCAASGRTFKYYAMGWYRQAPGKERELVAAITRSGSTYYADSVKGRFTISRDNAKNTVYLQMNSLKPEDTAVYYGAADVTLYYRGRRYYYWGQGTQVTVSS	high polyreactivity
QVQLVESGGGLVQAGGSLRLSCAASGSTFWWYAMGWYRQAPGKERELVATISWSTGSTYYADSVKGRFTISRDNAKNTVYLQMNSLKPEDTAVYYCNARIFYLFPGNSWSSSDYDYWGQGTQVTVSS	low polyreactivity
QVQLVESGGGLVQAGGSLRLICAASGRTFYIYTMGWYREAPGKERELVAAISSSGDSTYYADSLKGRFTISRDNAKNTVYLQMNSLKPEDTAVYYCAAYPTYPDEYWGEGTQVTVSS	low polyreactivity
QVKLVESGGGLVQAGGSLRLSCPASGSIFYRNTMGWYRQEPGKERELVASITSGSSTFYADSVKGRFTISRDNAKNTVYLQMNSLKAEDTAVYYCAKRRGSPGFRFRAGGAYGYWGQGTQVTVSS	low polyreactivity
QVQLVESGGGLVQAGGSLRLSCAASGRTFRPYAMGWYRQAPGKERELVAVITSGDSTSYADSVKGRFTISRDNAKNTVYLQMNSLKPEDTAVYYCAADSYSGYNYWGQGTQVTVSS	low polyreactivity
QVQLVESGGGLVQAGGSLRLSCAASGSSRIYDMGWYRQAPGKERVWVAAISSTGSTYYADSEKGRYTISRDNAKNTGYLQMNSLKPEETADYYCAAARYYRYDSYSSWGQGTQVTVSS	high polyreactivity
QVQLVESGGGLVQAGGSLRLSCAASGSIFVFYDMGWYRQAPGKERELVATISSGGGGTYYTDSVKGRFTISRDNAKNTVYLQMNSLKPEDTAVYYCAAEGDKYGKGYGYWGQGTQVTVSS	low polyreactivity
QVQLVESGGGLVQAGGSLRLSCAASGRIVGRHALGWYRQAPGKERELVAAMSSSGGTYYADSVKGRFTISRDKAKNTLYLQMNSLKPEDTAVYYCNARVRTQQRWVDYWGQGTQVTVSS	high polyreactivity
QVQLQESGGGLVQAGGSLRVSCAASGYISSWYPRGWYRQAPGKEREFVATISPGATTYYADSVKGRFTISRDYAKNTVYLQMNSLKPEDTAVYYCSAGQENNDFYSYWGQGTQVTVSS	low polyreactivity
QVQLVESGGGLVQAGGSLRLTCAASGRTFVTNAMGWYRQAPGKERELVAAISWSGGDTYYADSVKGRFTISRDNAKYTVYLEMNSLKPEDTAVYYCAAYFWGVYFFGMDYWGQGTLVTVSS	low polyreactivity
QVQLVASGGGLVQARGSLRLSCAASGRTFTYYAMGWYRQAPGKESELVAAISDSGGSTYYADSVKGRFTISRDNAKNTVYVQMNSLKPEDTAVYYCAAYRYVGPWTDVGSPDYDDWGQGTQVTVSS	low polyreactivity
QVQLVESGGGLVQAGGSLRLSCAASGSTFRYYAMGWYRQAPGKERELVAAISYGGGITNYADSVKGRLTISRDNAKNTVYLQMNSLKPEDTAVYYCAAYDRITRYDYWGQGTQVTVSS	high polyreactivity
QVQLVESGGGLVQAGGSLRLSCAASGYIFERYAMGWYRPAPGKERELVAAISSGGGRTYYADSVKGRFTISRDNAKNPVYLQMNSLQPEDTAVYYCAADHWWISSYWGQGTQVTVSS	high polyreactivity
QVQLVESGGGLVQAGGSLRLSCAASGRIFTSYAMGWYRQAPGKERELVAAISSGGSTYYADSVKGRFTISRDNAKNTVYLQMNSLKPEDTAVYYCNAQSTRRYYYYWGQGTQVTVSS	high polyreactivity
QVQLVESGGGLVQAGGSLRLSCAASGRTFYQYDMGWYRQEPGKERAFVADIDWSGGSTYYADSVKGRFTISRDNAKNTVYLQMNSLKPEDTAVYYCNADAYPHPVVGYDYWGQGTQVTVSS	low polyreactivity
QVQLVESGGGLVQAGGSLRLSCAASGLTLYTYAMGWYRQAPGKERELVAAISKNGGRTYYADSVKGRFTISRDNANNTVYLQMNSLKPEDTAVYYCAARARVGSVTFDYWGQGTQVTVSS	high polyreactivity
QVQLVESGGGLVQAGGSLRLSCAASGRIFGAYAMGSYRQAPGKERELVAAIDIRGGKTYYADSVKGRFTISRDYSKNSVYLQMNSMKPEDTAVYYCAADTWYDAYNYWGQGTQVTVSS	low polyreactivity
QVQLVESGGGLVQAGGSLRLSCAASGSIFVSYAMGWYRQAPGKDRELVAAITSAGTTYYADSVKGRFTISRDNAKNTVYLQMNSLNPEDTAVYYCNTDASFKRTRVSPETEYGYWGQGTQVTVSS	low polyreactivity
QVQLVESGGGLVQAGGSLRLSCASSGSTFFTNAMVWYRQAPGKERELVATITWSGGTTYADSVKGRFTISRDNAKNTVYLQMNSLKPEDTAVYYCADESSSYWGDQGGALWLYDYWGQGTQVTVSS	low polyreactivity
QVHLVESGGGLVQAGGSLRLSCAASGYTDYAMGWYRKAPGKERELVATITSGDNTNYADSVKGRFTSSRDNAKNTVYLQMNSLKAEDTAVYYCAAVYGLHYGIDYWGQGTQVNVSS	low polyreactivity
